Measurements reported in patent publication US20240392004A1 (IMMUNOWAKE, published 2024).
Positions count from the first letter of the chain named. Names and notes keep the numbering of the source.

T1: human IL-2 receptor (IL-2Rα, IL-2Rβ, IL-2Rγ) (human, UniProt P01589 22-272; P14784 27-551; P31785 23-369)
T1 sequence (looked up) 1: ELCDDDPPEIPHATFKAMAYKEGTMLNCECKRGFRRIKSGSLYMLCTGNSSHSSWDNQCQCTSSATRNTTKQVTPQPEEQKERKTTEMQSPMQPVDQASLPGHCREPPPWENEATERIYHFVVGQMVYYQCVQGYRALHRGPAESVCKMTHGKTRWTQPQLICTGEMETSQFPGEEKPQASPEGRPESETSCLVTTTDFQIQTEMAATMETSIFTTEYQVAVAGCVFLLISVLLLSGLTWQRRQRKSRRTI
T1 sequence (looked up) 2: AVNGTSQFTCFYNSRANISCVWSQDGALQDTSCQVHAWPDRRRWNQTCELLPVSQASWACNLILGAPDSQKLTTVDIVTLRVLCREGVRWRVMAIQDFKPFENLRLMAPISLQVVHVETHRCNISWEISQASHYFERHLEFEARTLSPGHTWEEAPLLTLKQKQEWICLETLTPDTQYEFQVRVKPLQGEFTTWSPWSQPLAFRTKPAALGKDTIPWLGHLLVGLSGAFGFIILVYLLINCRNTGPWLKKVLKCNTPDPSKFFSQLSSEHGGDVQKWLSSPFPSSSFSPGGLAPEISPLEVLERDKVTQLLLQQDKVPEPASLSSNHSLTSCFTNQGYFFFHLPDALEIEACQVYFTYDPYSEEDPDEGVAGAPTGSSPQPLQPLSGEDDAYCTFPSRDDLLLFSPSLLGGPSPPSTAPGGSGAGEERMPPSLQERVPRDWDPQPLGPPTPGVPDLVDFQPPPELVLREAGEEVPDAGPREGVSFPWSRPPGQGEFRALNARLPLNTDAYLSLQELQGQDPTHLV
T1 sequence (looked up) 3: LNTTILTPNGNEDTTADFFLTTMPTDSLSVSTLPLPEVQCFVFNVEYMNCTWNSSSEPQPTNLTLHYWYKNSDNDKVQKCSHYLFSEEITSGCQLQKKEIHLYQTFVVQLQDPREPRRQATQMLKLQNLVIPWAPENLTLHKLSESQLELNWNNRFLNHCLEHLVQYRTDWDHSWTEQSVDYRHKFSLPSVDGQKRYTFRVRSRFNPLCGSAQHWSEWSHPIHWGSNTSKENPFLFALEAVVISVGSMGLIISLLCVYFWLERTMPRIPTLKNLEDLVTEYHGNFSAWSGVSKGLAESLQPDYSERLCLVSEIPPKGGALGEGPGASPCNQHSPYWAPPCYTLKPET

B1: IL-2(L18R/Q22E/R38D/K43E/E61R)/IL-12(E59A/F60A)/PD-L1(mut2)-Fc (Fc fusion)
chain 1: FTVTVPKDLYVVEYGSNMTIECKFPVEKQLDLAALQVYWMMEDKNIIQFVHGEEDLKVQHSSYRQRARLLKDQLSLGNAALQITDVKLQDAGVYTCLIAYKGADYKRITVKVNAPYNKINQRILVVDPVTSEHELTCQAEGYPKAEVIWTSSDHQVLSGKTTTTNSKREEKLFNVTSTLRINTTTNEIFYCTFRRLDPEENHTAELVIPELPLAHPPNERGGGGSGGGIWELKKDVYVVELDWYPDAPGEMVVLTCDTPEEDGITWTLDQSSEVLGSGKTLTIQVKAAGDAGQYTCHKGGEVLSHSLLLLHKKEDGIWSTDILKDQKEPKNKTFLRCEAKNYSGRFTCWWLTTISTDLTFSVKSSRGSSDPQGVTCGAATLSAERVRGDNKEYEYSVECQEDSACPAAEESLPIEVMVDAVHKLKYENYTSSFFIRDIIKPDPPKNLQLKPLKNSRQVEVSWEYPDTWSTPHSYFSLTFCVQVQGKSKREKKDRVFTDKTSATVICRKNASISVRAQDRYYSSSWSEWASVPCSGGGGSGGGSGGGGSRNLPVATPDPGMFPCLHHSQNLLRAVSNMLQKARQTLEFYPCTSEEIDHEDITKDKTSTVEACLPLELTKNESCLNSRETSFITNGSCLASRKTSFMMALCLSSIYEDLKMYQVEFKTMNAKLLMDPKRQIFLDQNMLAVIDELMQALNFNSETVPQKSSLEEPDFYKTKIKLCILLHAFRIRAVTIDRVMSYLNASGGGGSGGGDKTHTCPPCPAPEDEGGPSVFLFPPKPKDTLMISRTPEVTCVVVDVSHEDPEVKFNWYVDGVEVHNAKTKPREEQYNSTYRVVSVLTVLHQDWLNGKEYKCKVSNKALPAPIEKTISKAKGQPREPQVYVYPPSREEMTKNQVSLTCLVKGFYPSDIAVEWESNGQPENNYKTTPPVLDEDGSFALVSKLTVDKSRWQQGNVFSCSVMHEALHNHYTQKSLSLSPGK
chain 2: FTVTVPKDLYVVEYGSNMTIECKFPVEKQLDLAALQVYWMMEDKNIIQFVHGEEDLKVQHSSYRQRARLLKDQLSLGNAALQITDVKLQDAGVYTCLIAYKGADYKRITVKVNAPYNKINQRILVVDPVTSEHELTCQAEGYPKAEVIWTSSDHQVLSGKTTTTNSKREEKLFNVTSTLRINTTTNEIFYCTFRRLDPEENHTAELVIPELPLAHPPNERGGGSGAPTSSSTKKTQLQLEHLRLDLEMILNGINNYKNPKLTDMLTFEFYMPKKATELKHLQCLERELKPLEEVLNLAQSKNFHLRPRDLISNINVIVLELKGSETTFMCEYADETATIVEFLNRWITFCQSIISTLTGGGGSGGGDKTHTCPPCPAPEKKGGPSVFLFPPKPKDTLMISRTPEVTCVVVDVSHEDPEVKFNWYVDGVEVHNAKTKPREEQYNSTYRVVSVLTVLHQDWLNGKEYKCKVSNKALPAPIEKTISKAKGQPREPQVYVLPPSREEMTKNQVSLLCLVKGFYPSDIAVEWESNGQPENRYMTWPPVLDSDGSFFLYSKLTVDKSRWQQGNVFSCSVMHEALHNHYTQKSLSLSPGK
B2: IL-2(L18R/Q22E/R38D/K43E/E61R)/PD-L1(mut2)-Fc/IL-12(E59A/F60A) (Fc fusion)
chain 1: FTVTVPKDLYVVEYGSNMTIECKFPVEKQLDLAALQVYWMMEDKNIIQFVHGEEDLKVQHSSYRQRARLLKDQLSLGNAALQITDVKLQDAGVYTCLIAYKGADYKRITVKVNAPYNKINQRILVVDPVTSEHELTCQAEGYPKAEVIWTSSDHQVLSGKTTTTNSKREEKLFNVTSTLRINTTTNEIFYCTFRRLDPEENHTAELVIPELPLAHPPNERGGGGSGGGDKTHTCPPCPAPEDEGGPSVFLFPPKPKDTLMISRTPEVTCVVVDVSHEDPEVKFNWYVDGVEVHNAKTKPREEQYNSTYRVVSVLTVLHQDWLNGKEYKCKVSNKALPAPIEKTISKAKGQPREPQVYVYPPSREEMTKNQVSLTCLVKGFYPSDIAVEWESNGQPENNYKTTPPVLDEDGSFALVSKLTVDKSRWQQGNVFSCSVMHEALHNHYTQKSLSLSPGKGGGGSGGGIWELKKDVYVVELDWYPDAPGEMVVLTCDTPEEDGITWTLDQSSEVLGSGKTLTIQVKAAGDAGQYTCHKGGEVLSHSLLLLHKKEDGIWSTDILKDQKEPKNKTFLRCEAKNYSGRFTCWWLTTISTDLTFSVKSSRGSSDPQGVTCGAATLSAERVRGDNKEYEYSVECQEDSACPAAEESLPIEVMVDAVHKLKYENYTSSFFIRDIIKPDPPKNLQLKPLKNSRQVEVSWEYPDTWSTPHSYFSLTFCVQVQGKSKREKKDRVFTDKTSATVICRKNASISVRAQDRYYSSSWSEWASVPCSGGGGSGGGSGGGGSRNLPVATPDPGMFPCLHHSQNLLRAVSNMLQKARQTLEFYPCTSEEIDHEDITKDKTSTVEACLPLELTKNESCLNSRETSFITNGSCLASRKTSFMMALCLSSIYEDLKMYQVEFKTMNAKLLMDPKRQIFLDQNMLAVIDELMQALNFNSETVPQKSSLEEPDFYKTKIKLCILLHAFRIRAVTIDRVMSYLNAS
chain 2: B1 chain 2
B3: IL-2(R38D/K43E/E61R/Q126T)/PD-L1(mut2)-Fc/IL-12(E59A/F60A) (Fc fusion)
chain 1: B2 chain 1
chain 2: B1 chain 2 with R243L, E247Q, Q351T
B4: IL-2(R38D/K43E/E61R/Q126T)/IL-12(E59A/F60A)/PD-L1(mut2)-Fc (Fc fusion)
chain 1: B1 chain 1
chain 2: B1 chain 2 with R243L, E247Q, Q351T
B5: PD-L1(mut2)-Fc/IL-12(E59A/F60A) (IL-12 at C' of Fc) (Fc fusion)
chain 1: B2 chain 1
chain 2: FTVTVPKDLYVVEYGSNMTIECKFPVEKQLDLAALQVYWMMEDKNIIQFVHGEEDLKVQHSSYRQRARLLKDQLSLGNAALQITDVKLQDAGVYTCLIAYKGADYKRITVKVNAPYNKINQRILVVDPVTSEHELTCQAEGYPKAEVIWTSSDHQVLSGKTTTTNSKREEKLFNVTSTLRINTTTNEIFYCTFRRLDPEENHTAELVIPELPLAHPPNERGGGGSGGGDKTHTCPPCPAPEKKGGPSVFLFPPKPKDTLMISRTPEVTCVVVDVSHEDPEVKFNWYVDGVEVHNAKTKPREEQYNSTYRVVSVLTVLHQDWLNGKEYKCKVSNKALPAPIEKTISKAKGQPREPQVYVLPPSREEMTKNQVSLLCLVKGFYPSDIAVEWESNGQPENRYMTWPPVLDSDGSFFLYSKLTVDKSRWQQGNVFSCSVMHEALHNHYTQKSLSLSPGK

Target: T1, human IL-2 receptor (IL-2Rα, IL-2Rβ, …)
Assay: cell-based or functional assay

IL-2 signal transduction, HEK-IL-2	Binder
4%	B1
3%	B2
3%	B3
2%	B4
< 0.1%	B5

Target: human IL-12 receptor complex (IL-12Rβ1 and IL-12Rβ2) (human, UniProt P42701 24-662; Q99665 24-862)
Sequence (Q99665 24-862, chain 2 of 2, other chains not shown): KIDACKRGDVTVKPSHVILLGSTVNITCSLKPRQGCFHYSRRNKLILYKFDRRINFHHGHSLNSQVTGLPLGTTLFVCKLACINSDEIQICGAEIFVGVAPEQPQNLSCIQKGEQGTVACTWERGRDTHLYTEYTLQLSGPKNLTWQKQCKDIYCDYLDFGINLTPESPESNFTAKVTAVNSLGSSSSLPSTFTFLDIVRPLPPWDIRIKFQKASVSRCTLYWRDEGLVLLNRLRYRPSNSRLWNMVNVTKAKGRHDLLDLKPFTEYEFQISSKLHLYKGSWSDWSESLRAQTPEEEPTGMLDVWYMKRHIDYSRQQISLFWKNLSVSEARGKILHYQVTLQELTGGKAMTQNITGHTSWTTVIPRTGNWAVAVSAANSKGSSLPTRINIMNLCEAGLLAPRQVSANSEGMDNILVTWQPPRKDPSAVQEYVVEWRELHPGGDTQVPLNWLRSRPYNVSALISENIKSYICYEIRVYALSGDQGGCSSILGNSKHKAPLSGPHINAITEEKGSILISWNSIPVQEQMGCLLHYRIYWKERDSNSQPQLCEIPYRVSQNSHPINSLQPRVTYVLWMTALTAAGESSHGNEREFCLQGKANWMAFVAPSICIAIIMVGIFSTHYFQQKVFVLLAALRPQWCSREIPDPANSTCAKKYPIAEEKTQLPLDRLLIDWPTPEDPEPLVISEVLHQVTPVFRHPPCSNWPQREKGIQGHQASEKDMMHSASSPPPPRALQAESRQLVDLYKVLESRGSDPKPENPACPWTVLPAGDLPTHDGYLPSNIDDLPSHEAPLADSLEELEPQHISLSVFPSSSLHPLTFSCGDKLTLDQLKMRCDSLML
Assay: cell-based or functional assay

IL-12 signal transduction, HEK-IL-12	Binder
< 0.2%	B1
2%	B2
1%	B3
< 0.2%	B4
1%	B5

Target: human PD-1 on cells (HEK-PD-1 reporter cells; activated PBMC) (human, UniProt Q15116 25-288)
Sequence (Q15116 25-288): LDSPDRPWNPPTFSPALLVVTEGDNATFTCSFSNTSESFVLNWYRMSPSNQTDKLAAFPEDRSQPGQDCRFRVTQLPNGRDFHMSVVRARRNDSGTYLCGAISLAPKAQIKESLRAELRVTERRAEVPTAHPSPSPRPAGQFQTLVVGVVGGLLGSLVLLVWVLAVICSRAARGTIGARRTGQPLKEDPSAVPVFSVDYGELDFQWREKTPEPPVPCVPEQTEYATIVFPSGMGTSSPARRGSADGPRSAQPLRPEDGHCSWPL
Assay: cell-based or functional assay

IL-2 signal transduction, HEK-IL-2-PD-1	IL-12 signal transduction, HEK-IL-12-PD-1	Binder
35%	19%	B1
32%	27%	B2
31%	30%	B3
20%	25%	B4
< 0.1%	25%	B5
